This data set deals with the molecule itself. Kind of data set: native gel or EMSA; blue native PAGE (3-12%) and immunoblot; purified caspase-4 (C258S) incubated with or without oxidized GPx8 30 min at 4°C, then with different amounts of LPS 30 min at 37°C; LPS-induced oligomerization. On the technique in general: A gel shift assay detects complexes by their altered migration in electrophoresis.

B1: FLAG-tagged human caspase-4 (C258S) protease-deficient mutant (natural protein, UniProt P49662 1-377, looked up)
chain: MAEGNHRKKPLKVLESLGKDFLTGVLDNLVEQNVLNWKEEEKKKYYDAKTEDKVRVMADSMQEKQRMAGQMLLQTFFNIDQISPNKKAHPNMEAGPPESGESTDALKLCPHEEFLRLCKERAEEIYPIKERNNRTRLALIICNTEFDHLPPRNGADFDITGMKELLEGLDYSVDVEENLTARDMESALRAFATRPEHKSSDSTFLVLMSHGILEGICGTVHDEKKPDVLLYDTIFQIFNNRNCLSLKDKPKVIIVQASRGANRGELWVRDSPASLEVASSQSSENLEEDAVYKTHVEKDFIAFCSSTPHNVSWRDSTMGSIFITQLITCFQKYSWCCHLEEVFRKVQQSFETPRAKAQMPTIERLSMTRYFYLFPGN
notes: human caspase-4 with the protease-deficient mutation C258S; also called Casp4C258S; source: 293T, transfected, in lysate
Take B1: the binding result was “binds”.

The record behind these values is publication PMC6949489, “Glutathione peroxidase 8 negatively regulates caspase‐4/11 to protect against colitis” (EMBO Molecular Medicine, 2019).
